How the values were obtained:
HeLa Kyoto [1] = test: melting temperature (median over replicates), in situ; higher = more thermally stable
HeLa Kyoto [2] = test: thermal stability score vs G1/S (z-score of summed log2 fold changes over temperatures); higher = more thermally stable than in G1/S
[3] = cell cycle stage: early G1 (4.5 h after nocodazole release)
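Wherever melting temperature (median over replicates), in situ is given: HeLa Kyoto cells synchronized by double thymidine or nocodazole block, proteins quantified by TMT10plex mass spectrometry, three independent biological replicates.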
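Wherever thermal stability score vs G1/S (z-score of summed log2 fold changes over temperatures) is given: synchronized HeLa Kyoto cells, proteins quantified by TMT10plex mass spectrometry, three biological replicates, mitosis taken 0.5 h after nocodazole release, G1/S directly after double thymidine block.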

Sequence of LSM5 (chain, as listed by the source): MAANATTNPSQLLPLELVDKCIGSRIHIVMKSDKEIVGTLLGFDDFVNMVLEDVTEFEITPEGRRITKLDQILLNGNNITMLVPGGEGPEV

Substance | melting temperature (HeLa Kyoto [1]; cell cycle stage: G1/S) | melting temperature (HeLa Kyoto [1]; cell cycle stage: mitosis) | thermal stability score (HeLa Kyoto [2]; [3]) | thermal stability score (HeLa Kyoto [2]; cell cycle stage: mitosis)
LSM5 | 55.9 °C | 52.9 °C | -2.66 | -1.99
MAALGGDGLRLLSVSRPERPPESAALGGLGPGLCCWVSVFSCLSLACSYVGSLYVWKSELPRDHPAVIKRRFTSVLVVSSLSPLCVLLWRELTGIQPGTSLLTLMGFRLEGIFPAALLPLLLTMILFLGPLMQLSMDCPCDLADGLKVVLAPRSWARCLTDMRWLRNQVIAPLTEELVFRACMLPMLAPCMGLGPAVFTCPLFFGVAHFHHIIEQLRFRQSSVGNIFLSAAFQFSYTAVFGAYTAFLFIRTGHLIGPVLCHSFCNYMGFPAVCAALEHPQRRPLLAGYALGVGLFLLLLQPLTDPKLYGSLPLCVLLERAGDSEAPLCS [RCE1] |  | 55.3 °C | -0.209 | -0.247
MAEFPSKVSTRTSSPAQGAEASVSALRPDLGFVRSRLGALMLLQLVLGLLVWALIADTPYHLYPAYGWVMFVAVFLWLVTIVLFNLYLFQLHMKLYMVPWPLVLMIFNISATVLYITAFIACSAAVDLTSLRGTRPYNQRAAASFFACLVMIAYGVSAFFSYQAWRGVGSNAATSQMAGGYA [PLLP] | 56.7 °C | 58.5 °C | -2.71 | -3.25
MANAEVSVPVGDVVVVPTEGNEGENPEDTKTQVILQLQPVQQGLFIDGHFYNRIYEAGSENNTAVVAVETHTIHKIEEGIDTGTIEANEDMEIAYPITCGESKAILLWKKFVCPGINVKCVKFNDQLISPKHFVHLAGKSTLKDWKRAIRLGGIMLRKMMDSGQIDFYQHDKVCSNTCRSTKFDLLISSARAPVPGQQTSVVQTPTSADGSITQIAISEESMEEAGLEWNSALTAAVTMATEEGVKKDSEEISEDTLMFWKGIADVGLMEEVVCNIQKEIEELLRGVQQRLIQAPFQVTDAAVLNNVAHTFGLMDTVKKVLDNRRNQVEQGEEQFLYTLTDLERQLEEQKKQGQDHRLKSQTVQNVVLMPVSTPKPPKRPRLQRPASTTVLSPSPPVQQPQFTVISPITITPVGQSFSMGNIPVATLSQGSSPVTVHTLPSGPQLFRYATVVSSAKSSSPDTVTIHPSSSLALLSSTAMQDGSTLGNMTTMVSPVELVAMESGLTSAIQAVESTSEDGQTIIEIDPAPDPEAEDTEGKAVILETELRTEEKVVAEMEEHQHQVHNVEIVVLED [GMEB1] | 49 °C |  | 0.789 | 2.68
MDDSGELGGLETMETLTELGDELTLGDIDEMLQFVSNQVGEFPDLFSEQLCSSFPGSGGSGSSSGSSGSSSSSSNGRGSSSGAVDPSVQRSFTQVTLPSFSPSAASPQAPTLQVKVSPTSVPTTPRATPILQPRPQPQPQPQTQLQQQTVMITPTFSTTPQTRIIQQPLIYQNAATSFQVLQPQVQSLVTSSQVQPVTIQQQVQTVQAQRVLTQTANGTLQTLAPATVQTVAAPQVQQVPVLVQPQIIKTDSLVLTTLKTDGSPVMAAVQNPALTALTTPIQTAALQVPTLVGSSGTILTTMPVMMGQEKVPIKQVPGGVKQLEPPKEGERRTTHNIIEKRYRSSINDKIIELKDLVMGTDAKMHKSGVLRKAIDYIKYLQQVNHKLRQENMVLKLANQKNKLLKGIDLGSLVDNEVDLKIEDFNQNVLLMSPPASDSGSQAGFSPYSIDSEPGSPLLDDAKVKDEPDSPPVALGMVDRSRILLCVLTFLCLSFNPLTSLLQWGGAHDSDQHPHSGSGRSVLSFESGSGGWFDWMMPTLLLWLVNGVIVLSVFVKLLVHGEPVIRPHSRSSVTFWRHRKQADLDLARGDFAAAAGNLQTCLAVLGRALPTSRLDLACSLSWNVIRYSLQKLRLVRWLLKKVFQCRRATPATEAGFEDEAKTSARDAALAYHRLHQLHITGKLPAGSACSDVHMALCAVNLAECAEEKIPPSTLVEIHLTAAMGLKTRCGGKLGFLASYFLSRAQSLCGPEHSAVPDSLRWLCHPLGQKFFMERSWSVKSAAKESLYCAQRNPADPIAQVHQAFCKNLLERAIESLVKPQAKKKAGDQEEESCEFSSALEYLKLLHSFVDSVGVMSPPLSRSSVLKSALGPDIICRWWTSAITVAISWLQGDDAAVRSHFTKVERIPKALEVTESPLVKAIFHACRAMHASLPGKADGQQSSFCHCERASGHLWSSLNVSGATSDPALNHVVQLLTCDLLLSLRTALWQKQASASQAVGETYHASGAELAGFQRDLGSLRRLAHSFRPAYRKVFLHEATVRLMAGASPTRTHQLLEHSLRRRTTQSTKHGEVDAWPGQRERATAILLACRHLPLSFLSSPGQRAVLLAEAARTLEKVGDRRSCNDCQQMIVKLGGGTAIAAS [SREBF2] |  |  | 7.8e-18 | 1.52e-16
MEAVVNLYQEVMKHADPRIQGYPLMGSPLLMTSILLTYVYFVLSLGPRIMANRKPFQLRGFMIVYNFSLVALSLYIVYEFLMSGWLSTYTWRCDPVDYSNSPEALRMVRVAWLFLFSKFIELMDTVIFILRKKDGQVTFLHVFHHSVLPWSWWWGVKIAPGGMGSFHAMINSSVHVIMYLYYGLSAFGPVAQPYLWWKKHMTAIQLIQFVLVSLHISQYYFMSSCNYQYPVIIHLIWMYGTIFFMLFSNFWYHSYTKGKRLPRALQQNGAPGIAKVKAN [ELOVL1] | 52.8 °C | 52.4 °C | 2.04 | 1.9
MGAALGTGTRLAPWPGRACGALPRWTPTAPAQGCHSKPGPARPVPLKKRGYDVTRNPHLNKGMAFTLEERLQLGIHGLIPPCFLSQDVQLLRIMRYYERQQSDLDKYIILMTLQDRNEKLFYRVLTSDVEKFMPIVYTPTVGLACQHYGLTFRRPRGLFITIHDKGHLATMLNSWPEDNIKAVVVTDGERILGLGDLGCYGMGIPVGKLALYTACGGVNPQQCLPVLLDVGTNNEELLRDPLYIGLKHQRVHGKAYDDLLDEFMQAVTDKFGINCLIQFEDFANANAFRLLNKYRNKYCMFNDDIQGTASVAVAGILAALRITKNKLSNHVFVFQGAGEAAMGIAHLLVMALEKEGVPKAEATRKIWMVDSKGLIVKGRSHLNHEKEMFAQDHPEVNSLEEVVRLVKPTAIIGVAAIAGAFTEQILRDMASFHERPIIFALSNPTSKAECTAEKCYRVTEGRGIFASGSPFKSVTLEDGKTFIPGQGNNAYVFPGVALGVIAGGIRHIPDEIFLLTAEQIAQEVSEQHLSQGRLYPPLSTIRDVSLRIAIKVLDYAYKHNLASYYPEPKDKEAFVRSLVYTPDYDSFTLDSYTWPKEAMNVQTV [ME3] |  |  | -5.4 | -4.14
MKSLVLLLCLAQLWGCHSAPHGPGLIYRQPNCDDPETEEAALVAIDYINQNLPWGYKHTLNQIDEVKVWPQQPSGELFEIEIDTLETTCHVLDPTPVARCSVRQLKEHAVEGDCDFQLLKLDGKFSVVYAKCDSSPDSAEDVRKVCQDCPLLAPLNDTRVVHAAKAALAAFNAQNNGSNFQLEEISRAQLVPLPPSTYVEFTVSGTDCVAKEATEAAKCNLLAEKQYGFCKATLSEKLGGAEVAVTCMVFQTQPVSSQPQPEGANEAVPTPVVDPDAPPSPPLGAPGLPPAGSPPDSHVLLAAPPGHQLHRAHYDLRHTFMGVVSLGSPSGEVSHPRKTRTVVQPSVGAAAGPVVPPCPGRIRHFKV [AHSG] |  |  | -0.0372 | -0.632
MNCRSEVLEVSVEGRQVEEAMLAVLHTVLLHRSTGKFHYKKEGTYSIGTVGTQDVDCDFIDFTYVRVSSEELDRALRKVVGEFKDALRNSGGDGLGQMSLEFYQKKKSRWPFSDECIPWEVWTVKVHVVALATEQERQICREKVGEKLCEKIINIVEVMNRHEYLPKMPTQSEVDNVFDTGLRDVQPYLYKISFQITDALGTSVTTTMRRLIKDTLAL [ATG101] |  |  | 0.111 | 1.17
MNSGVAMKYGNDSSAELSELHSAALASLKGDIVELNKRLQQTERERDLLEKKLAKAQCEQSHLMREHEDVQERTTLRYEERITELHSVIAELNKKIDRLQGTTIREEDEYSELRSELSQSQHEVNEDSRSMDQDQTSVSIPENQSTMVTADMDNCSDLNSELQRVLTGLENVVCGRKKSSCSLSVAEVDKHIEQLTTASEHCDLAIKTVEEIEGVLGRDLYPNLAEERSRWEKELAGLREENESLTAMLCSKEEELNRTKATMNAIREERDRLRRRVRELQTRLQSVQATGPSSPGRLTSTNRPINPSTGELSTSSSSNDIPIAKIAERVKLSKTRSESSSSDRPVLGSEISSIGVSSSVAEHLAHSLQDCSNIQEIFQTLYSHGSAISESKIREFEVETERLNSRIEHLKSQNDLLTITLEECKSNAERMSMLVGKYESNATALRLALQYSEQCIEAYELLLALAESEQSLILGQFRAAGVGSSPGDQSGDENITQMLKRAHDCRKTAENAAKALLMKLDGSCGGAFAVAGCSVQPWESLSSNSHTSTTSSTASSCDTEFTKEDEQRLKDYIQQLKNDRAAVKLTMLELESIHIDPLSYDVKPRGDSQRLDLENAVLMQELMAMKEEMAELKAQLYLLEKEKKALELKLSTREAQEQAYLVHIEHLKSEVEEQKEQRMRSLSSTSSGSKDKPGKECADAASPALSLAELRTTCSENELAAEFTNAIRREKKLKARVQELVSALERLTKSSEIRHQQSAEFVNDLKRANSNLVAAYEKAKKKHQNKLKKLESQMMAMVERHETQVRMLKQRIALLEEENSRPHTNETSL [MCC] |  |  | 0.157 | -0.438
MRRGERRDAGGPRPESPVPAGRASLEEPPDGPSAGQATGPGEGRRSTESEVYDDGTNTFFWRAHTLTVLFILTCTLGYVTLLEETPQDTAYNTKRGIVASILVFLCFGVTQAKDGPFSRPHPAYWRFWLCVSVVYELFLIFILFQTVQDGRQFLKYVDPKLGVPLPERDYGGNCLIYDPDNETDPFHNIWDKLDGFVPAHFLGWYLKTLMIRDWWMCMIISVMFEFLEYSLEHQLPNFSECWWDHWIMDVLVCNGLGIYCGMKTLEWLSLKTYKWQGLWNIPTYKGKMKRIAFQFTPYSWVRFEWKPASSLRRWLAVCGIILVFLLAELNTFYLKFVLWMPPEHYLVLLRLVFFVNVGGVAMREIYDFMDDPKPHKKLGPQAWLVAAITATELLIVVKYDPHTLTLSLPFYISQCWTLGSVLALTWTVWRFFLRDITLRYKETRWQKWQNKDDQGSTVGNGDQHPLGLDEDLLGPGVAEGEGAPTPN [PTDSS2] |  |  | -0.906 | -3.56
MSGGDTRAAIARPRMAAAHGPVAPSSPEQVTLLPVQRSFFLPPFSGATPSTSLAESVLKVWHGAYNSGLLPQLMAQHSLAMAQNGAVPSEATKRDQNLKRGNWGNQIEFVLTSVGYAVGLGNVWRFPYLCYRNGGGAFMFPYFIMLIFCGIPLFFMELSFGQFASQGCLGVWRISPMFKGVGYGMMVVSTYIGIYYNVVICIAFYYFFSSMTHVLPWAYCNNPWNTHDCAGVLDASNLTNGSRPAALPSNLSHLLNHSLQRTSPSEEYWRLYVLKLSDDIGNFGEVRLPLLGCLGVSWLVVFLCLIRGVKSSGKVVYFTATFPYVVLTILFVRGVTLEGAFDGIMYYLTPQWDKILEAKVWGDAASQIFYSLGCAWGGLITMASYNKFHNNCYRDSVIISITNCATSVYAGFVIFSILGFMANHLGVDVSRVADHGPGLAFVAYPEALTLLPISPLWSLLFFFMLILLGLGTQFCLLETLVTAIVDEVGNEWILQKKTYVTLGVAVAGFLLGIPLTSQAGIYWLLLMDNYAASFSLVVISCIMCVAIMYIYGHRNYFQDIQMMLGFPPPLFFQICWRFVSPAIIFFILVFTVIQYQPITYNHYQYPGWAVAIGFLMALSSVLCIPLYAMFRLCRTDGDTLLQRLKNATKPSRDWGPALLEHRTGRYAPTIAPSPEDGFEVQPLHPDKAQIPIVGSNGSSRLQDSRI [SLC6A9] |  |  | -0.03 | 1.01
SPG11 |  |  | -0.413 | -0.459

From the supplement of paper PMC5998384
